# Assays:
# [1] = tested on: CoREST del 2 (aa 293-482), His-tagged
# [2] = tested on: His-tagged full length (1-482aa) human CoREST
substance,measurement,setting,value
"histidine epitope-tagged LSD1 (HIS-LSD1), full length (1-851aa) human LSD1",stimulation of LSD1 demethylation activity (nucleosomal substrates),[1],sufficient to mediate stimulation of LSD1 demethylation activity to a level that is comparable to that of the wildtype CoREST
same,demethylation of nucleosomal substrates by LSD1 (Western blot with K4-H3 methylation-specific antibodies),[2],addition of CoREST to the demethylation reaction restored the ability of recombinant LSD1 to demethylate nucleosomal substrates
